Measured values reported in patent publication US20230037911A1 (SHANGHAI HENLIUS BIOTECH, published 2023).
Positions count from the first letter of the chain named. In names and notes the source's numbering stands. Each block holds one binder with its values, some of them ahead of it.

Columns and labels:
[1] = biological target: T1, human TIGIT stably expressed on cells (Jurkat; 293T) (human, UniProt Q495A1 22-244); assay: cell-based or functional assay
T1 sequence: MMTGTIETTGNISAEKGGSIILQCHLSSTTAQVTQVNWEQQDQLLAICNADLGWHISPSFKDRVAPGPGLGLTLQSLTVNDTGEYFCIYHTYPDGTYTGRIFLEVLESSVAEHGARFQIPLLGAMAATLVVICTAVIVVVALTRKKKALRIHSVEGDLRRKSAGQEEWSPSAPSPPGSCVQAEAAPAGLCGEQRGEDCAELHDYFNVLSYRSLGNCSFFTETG

[2] = biological target: T1, human TIGIT stably expressed on cells …; assay: flow cytometry, whole cell binding on h-TIGIT transfected Jurkat cells; anti-human IgG Fc AlexaFluor488 secondary
Procedure: The binding affinities of the humanized bivalent antibodies to human TIGIT were determined by whole cell binding to h-TIGIT stably expressed on Jurkat cells. Briefly, antibodies were incubated with h-TIGIT transfected Jurkat cells (0.2×10⁶/well in 100 μl) for 30 min in FACS buffer. The cells were washed once, then incubated with anti-human IgG Fc AlexaFluor488 (1:500).

[3] = biological target: T1, human TIGIT stably expressed on cells …; assay: flow cytometry, whole cell binding on Jurkat cells stably expressing human TIGIT; Alexa Fluor 488 anti-human IgG Fc secondary
Excerpt: FIGS. 1A-1C depict whole cell binding of representative VHH bivalent antibodies to human TIGIT determined by flowcytometry assays. […] Y axis represents Mean Fluorescence Intensity of AlexaFlour 488. X axis represents antibody concentrations in nanomolar. […] FIG. 1C is a schematic of the structure of a TIGIT VHH bivalent antibody.
Jurkat cells stably expressing human TIGIT and NFAT reporter gene were established. Specifically, Jurkat cells were transfected with human TIGIT expression vector by electroporation, and cells stably expressing human TIGIT were selected by 1 μg/ml puromycin during cell culture. Representative antibody clones were incubated at different concentrations with h-TIGIT stably expressing Jurkat cells (0.2×10⁶/ml) in 100 μl/well in 96-well plate in FACS buffer (PBS with 1.5% FBS) for 30 min. After washing, Alexaflour 488 conjugated anti-human IgG Fc secondary antibody (Alexa Fluor® 488 AffiniPure Goat Anti-Human IgG, Fcγ fragment specific, Jackson labs, 1:500 dilution) was added and incubated for 30 min. After washing, mean fluorescence intensity was measured using CytoFlex (Beckman Coulter) by gating live cell population. Binding affinity was calculated using GraphPad Prism.

[4] = biological target: T2, recombinant ECD of human FcγRIIB (human, UniProt P31994 43-217); assay: Octet (ForteBio) biolayer interferometry; sensor loaded with recombinant ECD of human FcγRIIB; antibody at 5 concentrations (not given)
T2 construct: extracellular domain
T2 sequence (looked up): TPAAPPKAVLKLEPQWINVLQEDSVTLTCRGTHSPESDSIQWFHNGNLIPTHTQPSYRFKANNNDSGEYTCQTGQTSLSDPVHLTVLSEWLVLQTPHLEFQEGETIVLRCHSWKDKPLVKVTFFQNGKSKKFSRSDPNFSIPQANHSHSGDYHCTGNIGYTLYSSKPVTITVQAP
Excerpt: (§1) Y axis represents association, dissociation & Rmax. X axis represents time in second.

[5] = biological target: T3, recombinant ECD of mouse FcγRIV (mouse, UniProt A0A0B4J1G0 21-203); assay: Octet (ForteBio) biolayer interferometry; sensor loaded with recombinant ECD of mouse FcγRIV; antibody at 5 concentrations (not given)
T3 sequence: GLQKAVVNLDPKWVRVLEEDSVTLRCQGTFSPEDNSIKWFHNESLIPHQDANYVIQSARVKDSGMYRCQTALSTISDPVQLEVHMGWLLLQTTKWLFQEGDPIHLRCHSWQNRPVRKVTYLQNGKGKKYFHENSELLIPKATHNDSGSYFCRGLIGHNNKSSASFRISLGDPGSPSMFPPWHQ
Excerpt: as §1

[6] = biological target: T4, recombinant ECD of human FcγRIIIA (human, UniProt P08637 17-208); assay: Octet (ForteBio) biolayer interferometry; sensor loaded with recombinant ECD of human FcγRIIIA; antibody at 5 concentrations (not given)
T4 construct: extracellular domain
Excerpt: as §1

[7] = biological target: T1, human TIGIT stably expressed on cells …; assay: cell-based or functional assay; remark: listed apart in the source
[8] = biological target: human FcγRIIIA on NFAT reporter Jurkat cells (human, UniProt P08637 17-254); assay: cell-based or functional assay
Sequence of human FcγRIIIA on NFAT reporter Jurkat cells (P08637 17-254): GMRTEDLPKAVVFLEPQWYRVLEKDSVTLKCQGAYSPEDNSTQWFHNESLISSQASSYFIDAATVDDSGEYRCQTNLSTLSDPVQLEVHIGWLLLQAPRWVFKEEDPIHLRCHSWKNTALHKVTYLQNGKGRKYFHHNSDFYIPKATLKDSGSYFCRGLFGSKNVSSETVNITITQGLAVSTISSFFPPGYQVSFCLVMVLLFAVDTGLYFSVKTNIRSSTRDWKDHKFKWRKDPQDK

T4 sequence (P08637 17-208): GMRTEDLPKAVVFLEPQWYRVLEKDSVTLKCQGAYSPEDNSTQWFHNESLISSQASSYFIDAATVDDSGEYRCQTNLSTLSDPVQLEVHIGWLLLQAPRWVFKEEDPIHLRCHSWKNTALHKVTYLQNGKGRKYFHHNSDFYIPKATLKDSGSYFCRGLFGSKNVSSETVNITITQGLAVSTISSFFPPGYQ

EC50 (read off the curve); NFAT luciferase reporter (RLU), h-TIGIT/NFAT Jurkat cells with PVR Raji cells and SEE [1]: ~0.8 nM
EC50 (read off the curve) [2]: ~0.03 nM
EC50 (read off the curve) [3]: ~0.04 nM
B1: 1C12-chimeric (llama VHH of 1C12 with human IgG1 CH2 and CH3 domains), bivalent (Fc fusion)
chain: QVQLVESGGGLVQTGDSLRLSCAASSRIFSRYGMGWFRQAPGKEREFVAAISWNGASTTYTDSVKGRFTISRDSAENTTYLQINSLRPEDTAVYYCAADPWGAVKLGTAEYEYWGQGTQVTVSS
notes: also called 1C12 chimeric parental clone; not shown: human IgG1 CH2 and CH3 domains

EC50 (read off the curve); NFAT luciferase reporter (RLU), h-TIGIT/NFAT Jurkat cells with PVR Raji cells and SEE [1]: ~1 nM
EC50 (read off the curve) [2]: ~0.08 nM
EC50 (read off the curve) [3]: ~0.1 nM
B2: 1G1-chimeric (llama VHH of 1G1 with human IgG1 CH2 and CH3 domains), bivalent (Fc fusion)
chain: QVQLVESGGGLVQAGDSLRLSCVASGPSFSSYPMGWFRQGPGKERESVAAISSDGRFTYYAASVKGRFTISKDNAKSAAFLQMNSLKPEDTAVYYCAARDSGSGYYSRAQWYDYWGQGTLVTVSS
notes: also called 1G1 chimeric clone; not shown: human IgG1 CH2 and CH3 domains

binding result [4]: binds
binding result [5]: binds
binding result [6]: binds
B3: 2A3-LT-Fc VLPLL (Fc mutations L235V, F243L, R292P, Y300L and P396L) (Fc fusion)
chain: QVQLVESGGGVVQPGRSLRLSCAASGGSFSSYPMGWFRQAPGKERESVAAISSDLRFTYYADSVKGRFTISRDNSKNTLYLQMNSLRAEDTAVYYCAARTSGVGYYSRAQWYDYWGQGTLVTVSSEPKSCDKTHTCPPCPAPELVGGPSVFLLPPKPKDTLMISRTPEVTCVVVDVSHEDPEVKFNWYVDGVEVHNAKTKPPEEQYNSTLRVVSVLTVLHQDWLNGKEYKCKVSNKALPAPIEKTISKAKGQPREPQVYTLPPSREEMTKNQVSLTCLVKGFYPSDIAVEWESNGQPENNYKTTPLVLDSDGSFFLYSKLTVDKSRWQQGNVFSCSVMHEALHNHYTQKSLSLSPGK
notes: also called VLPLL mutant; VPVLL (as printed once)

binding result [4]: binds
EC50 (nM), TIGIT blockade NFAT luciferase reporter assay, Average [7]: 0.97 nM
EC50 (nM), TIGIT blockade NFAT luciferase reporter assay, Exp 1 [7]: 0.67 nM
EC50 (nM), TIGIT blockade NFAT luciferase reporter assay, Exp 2 [7]: 0.92 nM
EC50 (nM), TIGIT blockade NFAT luciferase reporter assay, Exp 3 [7]: 1.32 nM
EC50 (nM), FcγRIIIA-mediated NFAT luciferase reporter activity, Average [8]: 0.024 nM
EC50 (nM), FcγRIIIA-mediated NFAT luciferase reporter activity, Exp 1 [8]: 0.027 nM
EC50 (nM), FcγRIIIA-mediated NFAT luciferase reporter activity, Exp 2 [8]: 0.0295 nM
EC50 (nM), FcγRIIIA-mediated NFAT luciferase reporter activity, Exp 3 [8]: 0.018 nM
EC50 (nM), FcγRIIIA-mediated NFAT luciferase reporter activity, Exp 4 [8]: 0.02 nM
binding result [5]: binds
B4: 2A3-LT-Fc-DLE (Fc mutations S239D, A330L and I332E) (Fc fusion)
chain: B3 chain with V145L, S149D, L153F, P202R, L210Y, A240L, I242E, L306P
notes: also called DLE mutant
